A short description of this series: soluble on expression in E. coli; label from the status in PepcDB or PDB records.
“MSLNDNPAWFNNPRKRAIPNSIIKRSNGQSLSPVRSDSADVPAFSNSNGFNNVTFGSKKDPRILKNVSPNDNNSANNNAHSSDLGTVVFDSNEAPPKTSLADWQKEDGIFSSKTDNIEDPNLSSNITFDGKPTATPSPFRPLEKTSRILNFFDKNTKTTPNTASSEASAGSKEGASTNWDDHAIIIFGYPETIANSIILHFANFGEILEDFRVIKDFKKLNSKNMSKSPSLTAQKYPIYTGDGWVKLTYKSELSKSRALQENGIIMNGTLIGCVSYSPAALKQLASLKKSEEIINNKTSSEGHHHHHH”: the “soluble on expression in E. coli” value is “soluble”.
The entry for “MGHHHHHHSHQETQLSSKVVQKLVLPFGRLNYLPLEQQFMPCLERILAREAGVAPLATVNILMSLCQLRCLPFRALHFVFSPGFINYISGTPHALIVRRYLSLLDTAVELELPGYRGPRLPRRQQVPIFPQPLITDRARCKYSHKDIVAEGLRQLLGEEKYRQDLTVPPGYCTDFLLCASSSGAVLPVRTQDPFLP” is “not soluble”; for “MVLFVDFLLEWLEMMRTRVRETTYASYNSGIRQSIIPYFMDKKLTLTDIEENPKYLQDFYQHELSKGLSPNSVLRRHANIRKALQHAFHLGLIKSNPADRIERPKKQLEHHHHHH” it is “not soluble”.
Consider “MSKNVGKLVKIWNESEVLVDRKSKFQARCCPLQNQKDIPSILQELTQNNKSVSKASHMHMYAWRTAEVSNNLHLQQEQKKKGNKANKSNNSHVNKSRNITVQPKNIEQGCADCGEAGAGQRLLTLLERANIFNVLVIVTRWYGGTPLGSSRFRHISTCAVETLKKGGFLP”, for which the “soluble on expression in E. coli” value is “soluble”.
As to “MSALLEVTNLHKDFVTRSGFLRKQIQHAVKPVSFTLEAGQTIGFIGQNGSGKSTLARMLAGMVAPTGGEIRVNGELLEHKDYSTRCKLIRMIFQDPNTSLNPRLQIGTILEGPLKRNTSMTPEARMRRVKDTLQRVGLLPEHAYFYPQMLATGQKQRVCLARALILQPSIIIADEALNGLDMAMRSQILNLFLELQEEMGVSFVYVSQHIGVIKHITDKIIVMHEGDVVESGETHEVLADPQHPITQRMIESHFTKAPTFKY”, the “soluble on expression in E. coli” value was “not soluble”.
Regarding “AAEGERAEPLRPSQSGARPCRAVGNMHFSIPETESRSGDSGGSAYVAYNIHVNGVLHCRVRYSQLLGLHEQLRKEYGANVLPAFPPKKLFSLTPAEVEQRREQLEKYMQAVRQDPLLGSSETFNSFLRRAQQETQQVPTEEVSLEVLLSNGQKVLVNVLTSDQTEDVLEAVAAKLDLPDDLIGYFSLFLVREKEDGAFSFVRKLQEFELPYVSVTSLRSQEYKIVLRKSYWDSAYDDDVMENRVGLNLLYAQTVSDIERGWILVTKEQHRQLKSLQEKVSKKEFLRLAQTLRHYGYLRFDACVADFPEKDCPVVVSAGNSELSLQLRLPGQQLREGSFRVTRMRCWRVTSSVPLPSGSTSSPGRGRGEVRLELAFEYLMSKDRLQWVTITSPQAIMMSICLQSMVDELMVKKSGGSIRKMLRRRVGGTLRRSDSQQAVKSPPLLESPDATRESMVKLSSKLSAVSLRGIGSPSTDASASDVHGNFAFEGIGDEDL”, the “soluble on expression in E. coli” value was “soluble”.
The entry for “NWVTPDGAPGPTGKGGFAAASGRYHLYVSYACPWAHRTLIFREIKGLSAHIPVSAVHPDMLDQGWTFAPEPQGRTGDRLYGLNYAHQVYTRADPTYSGRVTVPILWDSERQTVVSNESSEIIRMFNSAFDGLTGNRDDFWPEALREAIEPVNARIYDTVNN” is “not soluble”; for “MDAHLVQAKKTSTASELSDSSLTFPFIGDYLSSPSLTTSDYVSDCSNLTVEGPVPANQEFSSSDESSVYISSALRLADYAFTPDDNIRIKPDAVIVICTQCQHQIQDKFFLSIDGRNYHENCLQCSTCENPLSNKCFYKDKTFYCKGCYFRTHVTSTASSCRELGPKCASCDRTIQATDWVRRARNYVYHLACFSCNQCKRQLSTGEEYALQEGNLLCKQHFLELVEGDSGVSSQKAKTKRVRTTFAEDQLSVLQTYFNRDSNPDGADLEKIASMTGLSKRVTQVWFQNSRARQKKWHQKSEGDNGDSQRSSVGPSSPSQKSDSSSEMMYPTSVTTSVEDAIPDSIVILGSLQFD” it is “not soluble”.
The entry for “MRLIEQAIEKIESGQVTEGLTALEEAAKTANHEMKYTVAETYYELGHLDKAQAIIDELLMLYPDEGGLYTFAAEILIDLNKEDEAIEMLNEIKEQDPAFLQAQLLLADLYQLQSLDEVAEQKLLKAYEVAPDEPIISFGLGEFYLERGDYIKSIPHLKRAKHGGLTNDQVNVSLKLAEAYSGSGQFEEALPHYDEGLKQKLDPHGLFGYGYTAYLLGDYVLAIEQFQALKALDPDFYDPIPVFGEGFRRGKSFRGSNGCFKRGDDRGLEHHHHHH” is “soluble”.
As for “MNDGDVSRQIQQMVRFIRQEAEEKANEISVSAEEEFNIEKLQLVEAEKKKIRQDYEKKEKQADVRKKIDYSMQLNASRIKVLQAQDDIVNAMKDQAAKDLLNVSRDEYAYKQLLKDLIVQCLLRLKEPSVLLRCREEDLGLVEAVLDDAKEEYAGKAKVHAPEVAVDTKIFLPPPPKSNDPHGLHCSGGVVLASRDGKIVCENTLDARLDVAFRMKLPVIRKSLFGQVTA”, the “soluble on expression in E. coli” value was “soluble”.
The entry for “EKELLDNFKKNITQYAKQLEISIEKVYDEKGSVNAQKDIQNLLSEYANRQEIGEIRFIDKDQIIIATTKQSNRSLINQKANDSSVQKALSLGQSNDHLILKDYGGGKDRVWVYNIPVKVDKKVIGNIYIESKINDVYNQLNNINQ” is “not soluble”; for “MAHHHHHHMEYDKEKMESLVSKVKEKFGKKVEIVNLKLDVKMPLFEIFLQASIHTQIKIFYARGRTLQYRLPPVFWTRCKILKENKILQEKYGGECAPGLFPQYDEYNIMQIMTECVYNDKYNFYVYDVNLEWENLCALTPENRELRKIVHQNVHVPTRLAVIKAFEQGVEDFRDVIREEYLIMLREQRKLKENKKYKF” it is “not soluble”.
Take “MSRQRLGKSMIKANSWSSNLNAYRILQEPQSLTEEPPPIQTICPVQPESMAPPEHHNHRHLVTQEENRGRHLVGNPMRRTRSDVGAHGLTPHQPLLTRSKSDHGLERVATPLAFEVQSVGSEQTASSAEVMTAAGRRHSLLTDYQAAIARPLDLDRVLAAVKLRAAAEIYCKKNNLARLSPRPPRTSAGNQRLDALVNRPVDELIAEVQAAPRKFSRTQLTDVAQRHLLAALNIDIDQYKKGVHKAGLYEGLHSVAGRLVSVAAAAVSAGVSEVPGVSKTVTKTVKILSHQLPSSVVNPALTGGLRSVTDVMESFKRVGGLPVLSPQIDKSPDMGKIVKAAREMRGQLDEAVGHFARAHKSDPQALPRLVDAFLALHGVADRQYRRRIGLNRTQTYGKGWGMAVNGVAAIGTVVSTTVPVVGQVAGPAILASTIPLQWGAGYLDERRNKHRYNLRANTKWGDFLKDNAANIHFKDLTVEHISESKLRQSFLTQPEVQIAAIREVYEDTIGELMRRRLEMQKDIDVQREAGRPMRALALKQLRELDAEIDVTKMHADQFESFNMDRWSAIPEDSVIGRCLDDLDNLQKANRRARLRKPGEGAQIVQRYVQAFQGGVSTGTTLPVVDAVASIDSFHVHDSQGHDHGLQPAPLAVAAGTGAAGGAVFTGATGEVRMSKADNKKIMTQLRVDPEVYTADAEHWRFRAGNRDVDLRTSAGYKQHAHTRWDELALVAQALKHGLTSGPVGLKNLAVAKVELRQARASLQSALDALAASGLPHRTPDSARAPTISSMKDQLYDYSEVRRHLGV”: the “soluble on expression in E. coli” value is reported as “not soluble”.
The result for “MAHHHHHHMGTMGASNDVTDVDDENLLSEELQSSSTGSWSSMGDLQTTESAESDAPSEESDPDERVRRATASFLQWKNKEYVPLSLDEKRAIKEYRKMVAQEEGSYTSTRAQRQRDRAPKLFISREDDWVDLGSPAEGDGLARRRSRKIRFVAAVIASKEVDVHNDGLVVLTDAGEEVPELPRSASILRMSCVKNLTEEAPVFVDDLNSCMMEDEGRSCESAVRWEFPR” reads “soluble”.
In the case of “MTSYKPEYLIPNLLDLVAEGEGLRIEFKRLIHSAPKIARSITAFANTSGGVILIGVDDDRRIVGIQSEKEALQVIDEAMRFHIEPKPRIEVHFEEFKRRMVLLVDIPKSPERPHFHIEPLIRRDTGKHGVERRVFIRDGSHNKAASDDRIELMLSSREPLKVAFTGRERCLLDWLNEHDRITAEEFADSAGIPMKEARRILVSLVRAGALRLDTANGDNSYTLAHRLEHHHHHH”, the “soluble on expression in E. coli” value is “soluble”.
The result for “MSLAKYKRVVLKLSGEALAGEQGYGIDPEVIQSIASQIKEIVELDVEVAVVVGGGNIWRGMAGSAKGMDRATADYMGMLATVMNSLALQDSLENLDVQSRVQTSIEMRQVAEPYIRRRAIRHLEKKRVVIFAAGTGNPYFSTDTTAALRAAEIEAEVILMAKNKVDGVYNAEPSVDVNAKKYTSISYLDVLKEGLAVMDSTASSLCMDNNIPLIVFSIMEEGNIKKAVLGEEIGTVVRGSNEGHHHHHH” reads “soluble”; that for “MARFIAQLLLLASCVAAGQAVTAFLGERVTLTSYWRRVSLGPEIEVSWFKLGPGEEQVLIGRMHHDVIFIEWPFRGFFDIHRSANTFFLVVTAANISHDGNYLCRMKLGETEVTKQEHLSVVKPLTLSVHSERSQFPDFSVLTVTCTVNAFPHPHVQWLMPEGVEPAPTAANGGVMKEKDGSLSVAVDLSLPKPWHLPVTCVGKNDKEEAHGVYVSGYLSQ”, “soluble”; that for “LAQEKNYDLPEGVMVYVIEGPFFFGAVETFQSALANTHTDPKVLIIRMRWVPFIDVTGLQAMEEIILNLQKRGVRVLLSEANPLVDAKLRKMGIVQLIGEQNYYKEFSQALDVCRINDSDRKSQPPFEVAKPLASVTQ”, “not soluble”.
The entry for “MGSDKIHHHHHHMMGMKETVSNIVTSQAEKGGVKHVYYVACGGSYAAFYPAKAFLEKEAKALTVGLYNSGEFINNPPVALGENAVVVVASHKGNTPETIKAAEIARQHGAPVIGLTWIMDSPLVAHCDYVETYTFGDGKDIAGEKTMKGLLSAVELLQQTEGYAHYDDFQDGVSKINRIVWRACEQVAERAQAFAQEYKDDKVIYTVASGAGYGAAYLQSICIFMEMQWIHSACIHSGEFFHGPFEITDANTPFFFQFSEGNTRAVDERALNFLKKYGRRIEVVDAKELGLSTIKTTVIDYFNHSLFNNVYPVYNRALAEARQHPLTTRRYMWKVEY” is “not soluble”.
The result for “MSLTSYALLHTQRVTAKNGEVFTISPDLWERNQQQQSLLLRYFALPLKEENNRLWLGVDSLSNLSACETIAFITGKPVEPILLESSQLKELLQQLTPNQMQVEEQVEGHHHHHH” reads “soluble”; that for “MGSDKIHHHHHHMVVKIGLLGFGTVASGVPFLLEENQEKIEKAAHDSIEVAKVLVKDEAEKDRLLAAGHDYHFVTNIDDILADEDIAIVVELMGRIEPAKTFITHALEAGKHIVTANKDLLAVHGSELRALAEEKGLALYYEAAVAGGIPILRTLVNSLAADKVTRILGVLNGTSNFMLTKMVDEGWTYEKALQTAQELGYAESDPTNDVEGIDAAYKAVILSQFAFGMTVDFEHVAHKGISNITPEDVAVAQELGYVIKLVGDIQETTSGIAAEVSPTFLPKNHPLASVNGVMNAVFVESIGIGQSMYYGPGAGQKPTATSVMADIIRIVRRLKDNTIGKAFNEYSRSLQLAAPSDVKSEYYFSIDAPDKNGKMLRLAEIFNSEEISFKQILQQAADGETARLVIVTHEMSKTQLENVTDKLSKETDFTVLNTFKVLGE”, “not soluble”; that for “MSLKLLIEEFIPVEEISEEAKKEKLGNAKPPIFSLHYWWARKPLITARAAVLGALISKENLPMIVGNGDLKTNLLRILRIPKDINEGPRAHTQDPPAEYLKEAIIKTWGEIPTVLDPFAGGGSIPFEALRLGCNAVAVDYNPVAYLILKETLEYPKKYGMKLILEGHHHHHH”, “not soluble”.

Source of the values: the DeepSol protein solubility set.
